From the nanobody polyreactivity screen of Harvey et al. (2022)

experiment: yeast display, Sf9 membrane polyspecificity reagent, FACS + sequencing; frameworks hold sequencing errors
Outline: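 Galactose-induced (36–48 hours) yeast carrying a synthetic nanobody display library were exposed to 10% biotinylated, detergent-solubilized Sf9 membrane reagent at 4 °C for 1 hour. FACS followed streptavidin microbead enrichment, using low and high (top ~1%) gates for expression (anti-HA) and reagent binding (streptavidin). Colony PCR, MiSeq 2 × 250 sequencing and CDR-length filtering followed. Labels for polyreactivity reflect the gate of origin.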

| Sequence | polyreactivity (PSR sort gate) |
| --- | --- |
| QVQLVESGGGLVQAGGSLRLSCAASGSTFDGYAMGWYRQAPGKERELVASISWDDVRTYYADSVKGRFTISRDNAKNTVYLQMNSLKPEDTAVYDCAKGDIEYFWSRIYGYWGQGTQVTVSS | low polyreactivity |
| QVQLVESGGGLVQAGGSLRLSCAASGSTFDGYVMGWYRQAPGKEREFVAAISWSGGSTYYADSVKGRFTISRDNAKYTVYLQMNRLKREDTAVYYCAARVRRQHGYWGQGTQVTVST | high polyreactivity |
| QVQLVESGGGLVQAGGSLRLSCAASGSTFDHYAMGWYRQAPGKERELVASITLSGGSTYYADSVKGRFTISRDNAKNTVYLQMNSLKPEDTAVYYCNVDYPFYQYGYYYNYNYWGQGTQVTVSS | low polyreactivity |
| QVQLVESGGGLVQAGGSLRLSCAASGSTFDIYAMGWYRQAPGKERELVAAISNSGDTYYADSVKGRFTISRDNAKNTVYLQMNSLKPEDTAVYYCNADFHDWFDYWGQGTQVTVSS | high polyreactivity |
| QVQLVESGGGLVQAGGSLRLSCAASGSTFDIYVMGWYRQAPGKEREFVAAITTTTGRTNYADSVKGRFTISRDNAKNTVYLQMNSLKPEDTAVYYCAAYVTWGKLWYGYWGQGTQVTVSS | high polyreactivity |
| QVQLVESGGGLVQAGGSLRLSCAASGSTFDIYVMGWYRQAPGKERELVAAISRVGNTSYADSVKGRFTISRDNAKNTVYLQMNSLNPEDTAVYYCAADAPSWYDRQYDYWGQGNQVTVSS | low polyreactivity |
| QVQLVESGGGLVQAGGSLRLSCAASGSTFDKYAMGWYRQAPGKERELVAAITWGGGSTYYADSVKGRFTISRDNAKNTVYLQMNSLKPEDTAVYYCAAEQGSSVLYDSWGQGTQVTVSS | low polyreactivity |
| QVQLVESGGGLVQAGGSLRLSCAASGSTFDKYAMGWYRQAPRKERELVAAITWGGGSTYYADSVKGRITISRDNAKNTVYLPMNSLKPEDTAVYYCAAEQRSSVLYDSWGQGTQVTVSS | low polyreactivity |
| QVQLVESGGGLVQAGGSLRLSCAASGSTFDKYSMGWYRQAPGKERELVAAITWGGGSTYYADSVKGRFTISRDNAKNTVYLQMNSLKPEDTAVYYCAAEQGSSVLYDSWGQGTQVTVSS | low polyreactivity |
| QVQLVESGGGLVQAGGSLRLSCAASGSTFDLYAMGWYRPAPGKERELVAAITSSGGRTYYADSVKGRFTISRDNAKNTVYLQMNSLKPEDTAVYYCAATSSGGYYDGYNYWGQGTQVTVSS | high polyreactivity |
| QVQLVESGGGLVQAGGSLRLSCAASGSTFDNYAMGWYRQAPGKERELVAAINSRGGRTYYADSVKGRFTISRDNAKNTVYLQMNSLKPEDTAVYYCAAVGATHRFDYWGQGTQVTVSS | high polyreactivity |
| QVQLVESGGGLVQAGGSLRLSCAASGSTFDPNDMGWYRPAPGKERQLVASITSRGGSTYYADSVKGRFTISRDNAKNTVYLQMNSLKPEDTAVYYCAAVGGATYSWNGYSWYPWHNYWGQGTQVTVSS | low polyreactivity |
| QVQLVESGGGLVQAGGSLRLSCAASGSTFDPYAMGWSRQAPGKEREMVAAISTSVGGTYYADSVKGRFTISRDYAKNTVNLQMNSLKPEDTAVYYCAVDYSDVQAYTSNEEDYWGQGTQVTVSS | low polyreactivity |
| QVQLVESGGGLVQAGGSLRLSCAASGSTFDQNVMGWYRQAPGKERELVATINFSGDSTYYADSVKGRFTISRDNAKNTVYLQMNSLKPEDTAVYYCAVDWGEYIDTSVKRDISYYWGQGTQVTVSS | low polyreactivity |
| QVQLVESGGGLVQAGGSLRLSCAASGSTFDRNVMGWYRQAPGKERELVAAISRVSSTNYADSVKGRFTFSRDNAKNTVYLLMNSLKPEDTAVYYCAADRAGSIMNYWGQGTQVTVSS | low polyreactivity |
| QVQLVESGGGLVQAGGSLRLSCAASGSTFDRYTLGWYRQAPGKERELVAGISNSGGSTYYADSVKGRFTISRDNAKNTVYLQMNSLKPEDTAVYYCAAAYSIRRILYYYWGQGTHVTVSS | high polyreactivity |
| QVQLVESGGGLVQAGGSLRLSCAASGSTFDSNGMGWYRQAPGKERELVADITYSDGRTYADSVKGRFTISRDNAKNTVYLQMNSLKPEDTAVYYCAVSDSVYAGFTSYDYWGQGTQVTVSS | low polyreactivity |
| QVQLVESGGGLVQAGGSLRLSCAASGSTFDSNTMRWYRQAPGKETELVAAITVSGGSTHYADSVKGRFTISRDNAKNTVYLQMNSLKPEDTAVYYCNRRSYGYGAFSGYDYWGQGTQVTVSS | low polyreactivity |
| QVQLVESGGGLVQAGGSLRLSCAASGSTFDSNVMGWYRQAPGKERELVAAIDLSGGITYYADSVKGRFTISRDNAKNTVYLQMNSLKPEDTAVYYCATDEGYRYPHVDLTEVYYWGQGTQVTVSS | low polyreactivity |
| QVQLVESGGGLVQAGGSLRLSCAASGSTFDSYAMGWYRQAPGKEGELVAAITGGGDTNYADSVKGRFTISRDNAKNTVYLQMNSLKPEDTAVYYCAAYQRRGNYQMDYWGQGTQVTVSS | low polyreactivity |
| QVQLVESGGGLVQAGGSLRLSCAASGSTFDTNAMGWYRQAPGKDRELVAAITSGGNTYADSVKGRFTISRDNAKNTVYLQMNSLKPEDTAVYYCAAEDVYTGWYDYWGQGTQVTVSS | low polyreactivity |
| QVQLVESGGGLVQAGGSLRLSCAASGSTFDTNAMGWYRQAPGKERELVATITSIGGSTYADSVKGRFTISRDNAKNTVYLQMNSLKPEDNAVYYCATDYVEIDYYYDYWGQGTQVTVSS | low polyreactivity |

| Sequence | polyreactivity (PSR sort gate) |
| --- | --- |
| QVQLVESGGGLVQAGGSLRLSCAASGSTFDTYAMGWYRPAPGKERELVAGMTRRGGRTYYADSVKGRFTISRDTAKNTVYLQKNSLKPEDTADYYCNAVPQRPVGKLDHWGQGTQVTVSS | high polyreactivity |
| QVQLVESGGGLVQAGGSLRLSCAASGSTFDVNTMGWYRQAPGKERELVAAIRLRGGSTYYADSVKGRFTISRDNAKNTVYLQMYSLKPEDTEVSYCAADYTLIYDYWGQGTQVTVSS | low polyreactivity |
| QVQLVESGGGLVQAGGSLRLSCAASGSTFDVYAMGWYIQAPGKERELVASIRWSGGSTNYADSVKGRFTISRDNAKNTVYLQMNSLKPEDTAVYYCNADVGTGFRPGQYDYWGQGTQVTLSS | low polyreactivity |
| QVQLVESGGGLVQAGGSLRLSCAASGSTFDVYDMGWYRQAPGKERELVASISWDGDRTYYADSVKGRFTISRDNAKNTVYLQMNSLKPEDTAVYYCAVDSASDTIYDYWGQGTQVTVSS | low polyreactivity |
| QVQLVESGGGLVQAGGSLRLSCAASGSTFDWYAMGWYRQAPGKEREFVAAIDQDEDSTYYADSVKGRFTISRDNAKNTVYLQMNSLKPEVTAVYYCAADHAWYSLFDYWGQGTQVTVSS | low polyreactivity |
| QVQLVESGGGLVQAGGSLRLSCAASGSTFDWYTMGWYRQATGKERELVADITSGGSTYYADSVKGRFTISRDNAKNTVYLQMNSLKPEDTAAYYCNAYLYTWRWAFDYWGQGTQVTVSS | high polyreactivity |
| QVQLVESGGGLVQAGGSLRLSCAASGSTFDYNAKGSYRQAPGKERELVAVISSSGGSTYYADSVKGRFTISRDIAMNTVYLQMNSLKPVDTAVYYCAALYRNYGSSYAYYYWGLGTQVTVSS | low polyreactivity |
| QVQLVESGGGLVQAGGSLRLSCAASGSTFDYNAMGWYRQAPGKERELVAAISARGTSTYYADSVKGRFTISRDNAKTTVYLQMNSLKPEDTAVYYCAARIHTAYYIFGYWGQGTQVTVSS | high polyreactivity |
| QVQLVESGGGLVQAGGSLRLSCAASGSTFDYNAMGWYRQAPGKERELVAAISWRGGGTYYADSVKGRFTISRDNAKNTVYLQMNSLKPEDTAVYYCNTVSRNGFYRSRHDYWGQGTQVTVSS | low polyreactivity |
| QVQLVESGGGLVQAGGSLRLSCAASGSTFDYYAMGWSRQAPGKERELVAAITGTGGSTYYADSEKGRFTISRNNAKNTVYLQMNSLKPEDTAVYYCNRVSGTRRHTMDYWGQGTQVTVSS | low polyreactivity |
| QVQLVESGGGLVQAGGSLRLSCAASGSTFDYYAMGWYRQAPGKERELVAAISGSGGSTYYADSVKGRITISRDNAKNTVYLQMNSLKPEDTAVYYCATVRSRLFGQYYYWGQGTQVTVSS | high polyreactivity |
| QVQLVESGGGLVQAGGSLRLSCAASGSTFDYYARGWYRQAPGKERELVAGISSSGGRTYYADSVKGRFTISRDNAKNTVYLQMNSLKPEDTAVYYCAARIRVRKHEAFDYWGQGTQVTVSS | low polyreactivity |
| QVQLVESGGGLVQAGGSLRLSCAASGSTFDYYDMGWYRQAPGKERELVAAISSGGDSTYYADSVKGRFTISRDNAKNTVYLQMNSLKPEDTAVYYCAAAVYYGQSVWYYYWGQGTQVTVSS | high polyreactivity |
| QVQLVESGGGLVQAGGSLRLSCAASGSTFDYYDMGWYRQAPGKERELVAAISYSGTSTYYADSVKGRFTISRDNAKNTVYLQMNSLKPEDTAVYYCAKVFPDWYWYDYWGQGTQVTVSS | low polyreactivity |
| QVQLVESGGGLVQAGGSLRLSCAASGSTFEDYAMGGYRQAPGKERELVAAISHIGGSTYYADSVKGRFTISRDNAKNTVYLQMNSLKPEDTAVYYCAKGGFSSKFDFWGQGTQVTVSS | low polyreactivity |
| QVQLVESGGGLVQAGGSLRLSCAASGSTFEDYAMGWYTQAPGKERELVAAINKTGGSTNYADSVKGRFTISRDNAKNTVYLQMNSLKPEDTAVYYCAADGSNYSASVAAFPYRVVYWGQGTQVTVSS | low polyreactivity |
| QVQLVESGGGLVQAGGSLRLSCAASGSTFEFYAMGWYRQAPGKERELVAAIWRGGSTHYADSVKGRFTISRDNAKNTVYLQMNSLKPEDTAVYYCAASPYIFWRFEYWGQGTQVTVSS | low polyreactivity |
| QVQLVESGGGLVQAGGSLRLSCAASGSTFEPYAMGCYRQAPGKERELVAAISWSGGSTYYADSVKGRFTISRDNAKNTVDLQMNSLKPEDTAVYYCAAESGVPYYLPVVIYYYWGQGTQVTVSS | high polyreactivity |
| QVQLVESGGGLVQAGGSLRLSCAASGSTFERYVMGWYRQRLGKKGSWLPVLNHNGGSTYYADSVKGRFTISRDNAKNTVYLQMNSLKPEDTAVYYCAASFRTVLDFGYWGQGTQVTVSS | low polyreactivity |
| QVQLVESGGGLVQAGGSLRLSCAASGSTFESNAMGWYRQAPGKERELVASISGSGGSTFYADSVKGRFTISRDNAKNTVYLQMNSLKPEDTAVYYCNRGRDEYDYWGQGTQVTVSS | low polyreactivity |
| QVQLVESGGGLVQAGGSLRLSCAASGSTFESYAMGWYRQAHGKERELVASISRSGGTTFYADSVKGRFTISRDNAKNTVYLQMNSLKPEDTAVYYCAAKRRRLGGDYWGQGTQVTVSS | high polyreactivity |
